Assay: yeast display, Sf9 membrane polyspecificity reagent, FACS + sequencing; frameworks hold sequencing errors
Summary of the method: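 After 36–48 hours of galactose induction, yeast (Saccharomyces cerevisiae BJ5465) displaying a synthetic nanobody library were stained at 4 °C for 1 hour with 10% biotinylated, detergent-solubilized Sf9 membrane reagent. Streptavidin microbeads enriched the stained cells before FACS sorting into low and high (top ~1%) gates on anti-HA and streptavidin fluorescence. Each clone's polyreactivity label reflects its gate of origin.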

Row | Sequence | polyreactivity (PSR sort gate)
1 | QVQLVESGGGLVQAGGSLRLSCAASGRTFIKYAMGWYRQAPGKERELVAAISRNGGSTNYADSVKGRFTISRDNAKNTVYLHMNSLKPEDTAVYYCAAVGTVSRTVGYNYWGQGTQVTVSS | high polyreactivity
2 | QVQLVESGGGLVQAGGSLRLSCAASGRIFTKYAMGWYRQAPGKERELVAAISWSGGRTYYADSVKGRFTISRDNAKNTVYLQMNSLKPEDTAVYYCAAESYKTATLGEDYWGQGTQVTVSS | high polyreactivity
3 | QVQLVESGGGLVQAGGSLRLTCAASGSTFVLYARGWYRQAPGKERELVAAITRRGGDTYYADSVKGRFTISRDNAKNTVYLQMNSLKPEDTAVYFCATDYTTYGRYDYWGHGTQVTVSS | low polyreactivity
4 | QVQLVESGGGLVQAGGSLRLSCAASGRTFAWYAMGWYRQAPGKERELVAAISSGGSTYYADSVKGRFTISRDNAKKTVYLQMNSLKPDDTAVYYCAAEWHYIYAYDYWRQGTQVTVSS | low polyreactivity
5 | QVQLVESGGGLVQAGGSLRLSCAAYGITFAPYAMGWYRQAPGKERELVAGINTGGSTYYADSVKGRFTISRDNAKNTVYLQMNSLKPEDTAVYYCATESYPADHDIPGSDYWGQGTQVTVSS | low polyreactivity
6 | QVQLVESGGGLVQAGGSLRLICAASGSTFVPNAMGGYRQAPGKERELVAAITASTGRTYYADSVKGRFTISRDNAKNTVYLQMNSLKPEDTAVYYCAAYFVYWSDLEHYYPVEYGYWGQGTQVTVSS | high polyreactivity
7 | QVQLVESGGGLLQAGGSLRLSCAASGSTFKGYAMGWYRQAPGKERELVAAISWSAGSTYYADSVKGRFTISRDNAKNTVYLQMNSLKPEDTAVYYCAKASVALRYYSYSLGRDYWGQGTQVTVSS | low polyreactivity
8 | QVQLVEAGGGLVQAGGSLRLSCAASGRTFLYYDMGRYRQAPGKERELVAVITLRGGRTYYADSVKGRFTISRDNAKNTVYLQMNILKPEDTAVYYCAKDYSRGYNYWGQGTQVTVSS | high polyreactivity
9 | QVQLVESGGGLVQAGGSLRLSCAASGRIFYNNVMGCYRQAPGKERELVAAISGNGGSTYYADSVKGRFTISRDNAKNTVYLQMNSLKPEDTAVYYCAARSSFRTLIFYQKFDYWGQGSQVTVSS | low polyreactivity
10 | QVQLVESGGGLVQAGGSLRLSCAASGFIFLSYAMGRYRQAPGKERELVAAISGRGGSTYYADSVKGRFTISRDNAKNTVYLQMNSLKPEDTAVYYCAVRRYRFPPGDYWGQGTQVTVSS | high polyreactivity
11 | QVQLVESGGGLVQAGGSLRLSCAASGSIFLYYAMGWYRQAPGKERELVAAISGRAGSTYYADSVKGRFTISRDNAKNTVYLQMNSLKPEDTSVYYCAAGYWHGYPGFKYYWGQGTQVTVSS | low polyreactivity
12 | QVQLVDSGGGLVQAGGSLRLSCGASGRIFPYNAMGWYRQAPGKERELVAAINWSGGSTYYADSVKGRFTISRDTAKNTVYLQMNSLKPEDTAVYYCAVKTVRSSSRNYWRQGTQVTVSS | high polyreactivity
13 | QVQLVESGGGLVQAGGSLRLSCAASGSIFIYNAMGWYRQAPGKERELVAAINWTGGSTYYADSVKGRFTISRDNAKNTVYLQMNSLKPEDTAVYYCNALRYGSTRGYDYWGQGTQVTVSS | high polyreactivity
14 | QVQLVESGGGLVQAGGSLRLSCAASGSIFVANPMGWYRQATGKERELVAVISSGGGSTSYADSVKGRFTISRDNAKNSVYLQMNSLKPEDTAVYYCNRRRYDAGSTMGYWGQGTQVTVSS | low polyreactivity
15 | QVQLVESGGGLVQAGGSLRLSCAASGSTFAYYTRGWYRQAPGKERELVAAITSGGRTSYADSVKGRFTISRDNAKNSVYLQMNSLKPEDTAVYYCAKGRKPGYYYWGQGTQVTVSS | high polyreactivity
16 | QVQLVDSGGGLVQAGGSLRLSCAASGGIFYHNAMGWYRQAPGKERELVAAISGRGGRTYYADSVKGRFTISRDNAKNTVYLQMNSLKPEDTAVYYCYADQYKDFDYWGQGTQVTVSS | low polyreactivity

Row | Sequence | polyreactivity (PSR sort gate)
17 | QVQLVESGGGLVQAGGSLRLSCAASGRIFKYNAMGWYRPAPGKERELVAAISGTGGSTYYADSVKGRFTISRDNAKNTVYLQMNSLKPEDTAVYYCNRRYYGHSTWKYDYWGQGTQVTVSS | high polyreactivity
18 | QVQLVESGGGLVQAGGRLRLSCAASGSIFIYNAMGWYRQAPGKERELVATSSSGTRTYYADSVKGRFTISRDNAQNTVYFQMNSLKPEDTAVYNCAADGPFRRTYGDWGQGPQVTVSS | low polyreactivity
19 | QVQLVESGGGLVQAGGSLRLSCAASGRIFGFNMGWYRQAPGKERELVAAINSGGGTYYADSVKGLFTISRDNAKNTVYLQMNSLKPEYTAVYYCNARFRFRLGQYRYDYWGQGTQVTVSS | high polyreactivity
20 | QVQLVESGGGLLQAGGSLRLSCAASGFTFSRYAMGWYRQAPRKEMELVATISRSGGTTYYADSVKGRFTISRDNAKNTVYLLMNSLKPEDTAVYYGNTDKIWGLQYYYWGQGTQVTVSS | high polyreactivity
21 | QVQLVESGGGLVQAGGSLRLSCADSGFTFWRYAMGWYRQAPGKERELVAAISWRGSSTYYADSVKGRFTISRDIAKNTVYLQMNSLKPEDTAVYYCARYQSTYDSTYNYWGQGTQVTVSS | high polyreactivity
22 | QVQLVESGGGLVQAGGSLRLSCAASGRIFPTYTMGWYRQAPGKERELVAAINRGGGSTYYADSVKGRFTISRDNAKNTVYLQMNSLKPEDTAVYYCNARTYYRYYGYDYWGQGTQVTVSS | low polyreactivity
23 | QFQLVESGGGLVQAGCSLRLSCAASGRTVGSNDMGWYRQAPRKEMDLFAAIPTTTASTNYADSVKGRFTISRDNAKNTVYFQMNSLKPEDNAVYYCNKQYLWYYWDGTDAEDYWGQGTQVTVSS | low polyreactivity
24 | QVQLVESAAGLVQAGGSLRLSCAPSGIIFGSYAMGWYRQEPGKESELVAAISRGTSTYYADSVKGRFTISRDNAKNTVYLQMNSLKPEDTAVYYCAATRQQYGPLSRFVYWYYYWGQGTQVTVSS | low polyreactivity
25 | QVQLVESGGGLVQAGGSLRLSCAASGIIFTYSAMGWYRQAPGKERELVAAISRRGGTTYYADSVKGRFTISRDNAKNTVYLQMNSLKPEDTAVYYCAKKWGWFPVYYWGQGTQVTVSS | high polyreactivity
26 | QVQLVESGGGLVQAGGSLRLSCAASGIFDYYVMGWYIQAPGKERELVAAISKSVGSTYYADSVKGRFTISRDNAKNTVYLQMNSLKPEDTAVYYCAVENRYRFGYWGQGTQVTVSS | low polyreactivity
27 | QVQLVESGGGLVQAGGSLRLSCAASGSTIYGYAMGWYRQAPGKERELVAAISISGGGTYYADSVKGRFTISRDNAKNTVYLQMNSLKPEDTAVYYCARRYFWGQGTQVTVSS | low polyreactivity
28 | QVQLLESGGGLVQAGGSLRLSCAASGLIFKYYAMGWYRQAPGKERELVAVITSSGGSTYYADSVKGRFTISRDNANNTVYLQMNSLKPEDTAVYYCAARRVRWPYDYWGQGTQVTVSS | high polyreactivity
29 | HVQLVESGGGLVQAGGSLRLSCAASGLTFSRYTMGWYRQAPGKERELVAAISRSGASTYYADSVKGRFTISRDNAKNTVYLQMNSLKPEDTAVYYCAKTSTSYGSLRKVTPYPLDYWGQGTQVTVSS | high polyreactivity
30 | QVQLVESGGGLVQAGGSLRLSCAASGFIFLLNAMGWYRQAPGKERELVAAISWGGGSTYYADSVKGRFTISRDNAKNTVYLQMNSLKPEDTAVYYCAAKPGKTPLTGHRGPYDTGYGYWGQGTQVTVSS | low polyreactivity
31 | QVQLVESGGGLVQAGGSLRLSCAASGSIFYYNTMGWYRQAPGKERELVAAISWSGGSTSYADSVKWRFTISRDNAKNTVYLQMNSLKPEDTAVYYCNVDYGVHVPPRDYWGQGTQVTVSS | low polyreactivity
32 | QVQLVESGGGLVQAGGSLRLSCAASGSIIVGYAMGWYRQAPGKEREMVALISSDCDTYYADSVKGRFTISRDNAKNTVYLQMNSLKAEDTAVYYCNADLYGGGDKSVISGLNGEYEYWGQGTQVTVSS | low polyreactivity
